Source: paper PMC3823977, “Protein Interaction Analysis of Senataxin and the ALS4 L389S Mutant Yields Insights into Senataxin Post-Translational Modification and Uncovers Mutant-Specific Binding with a Brain Cytoplasmic RNA-Encoded Peptide” (PLoS ONE, 2013)

Biological target: the molecule itself
Experiment: SEC; size-exclusion chromatography of recombinant senataxin (1–600) after cleavage from GST

B1: recombinant amino-terminal senataxin (1–600), GST cleaved (domain or fragment, human, UniProt Q7Z333-1 1-600, looked up)
chain: MSTCCWCTPGGASTIDFLKRYASNTPSGEFQTADEDLCYCLECVAEYHKARDELPFLHEVLWELETLRLINHFEKSMKAEIGDDDELYIVDNNGEMPLFDITGQDFENKLRVPLLEILKYPYLLLHERVNELCVEALCRMEQANCSFQVFDKHPGIYLFLVHPNEMVRRWAILTARNLGKVDRDDYYDLQEVLLCLFKVIELGLLESPDIYTSSVLEKGKLILLPSHMYDTTNYKSYWLGICMLLTILEEQAMDSLLLGSDKQNDFMQSILHTMEREADDDSVDPFWPALHCFMVILDRLGSKVWGQLMDPIVAFQTIINNASYNREIRHIRNSSVRTKLEPESYLDDMVTCSQIVYNYNPEKTKKDSGWRTAICPDYCPNMYEEMETLASVLQSDIGQDMRVHNSTFLWFIPFVQSLMDLKDLGVAYIAQVVNHLYSEVKEVLNQTDAVCDKVTEFFLLILVSVIELHRNKKCLHLLWVSSQQWVEAVVKCAKLPTTAFTRSSEKSSGNCSKGTAMISSLSLHSMPSNSVQLAYVQLIRSLLKEGYQLGQQSLCKRFWDKLNLFLRGNLSLGWQLTSQETHELQSCLKQIIRNIKFKAP
notes: vector pGEX-4T-2; also called purified senataxin peptide; source: E. coli, GST-tagged, purified after in vitro cleavage
- stoichiometry N: 2
